Target: T1, FKBP51, Q13451
T1 chain: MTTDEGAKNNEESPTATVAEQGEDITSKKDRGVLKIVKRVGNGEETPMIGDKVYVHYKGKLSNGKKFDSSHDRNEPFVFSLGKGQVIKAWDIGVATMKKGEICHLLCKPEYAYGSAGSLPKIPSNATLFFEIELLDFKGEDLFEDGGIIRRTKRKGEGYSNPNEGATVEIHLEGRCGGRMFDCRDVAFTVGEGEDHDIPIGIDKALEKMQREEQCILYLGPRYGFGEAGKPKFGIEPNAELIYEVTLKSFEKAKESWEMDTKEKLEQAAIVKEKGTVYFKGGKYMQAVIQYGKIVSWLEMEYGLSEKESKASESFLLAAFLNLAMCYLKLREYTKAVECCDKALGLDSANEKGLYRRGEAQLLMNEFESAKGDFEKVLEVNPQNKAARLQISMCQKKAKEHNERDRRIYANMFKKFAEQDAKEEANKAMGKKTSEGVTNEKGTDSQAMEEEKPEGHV
Test: ITC; 50 µM FKBP51 in the cell titrated with 750 µM p23; 25 °C; 25 mM HEPES, 10 mM KCl, 5 mM MgCl2, 1 mM DTT, pH 7.2; one set of binding sites
Settings: remark: other sources report otherwise

B1: p23 wild-type (human co-chaperone p23, 160 amino acids), Q15185 1-160 (natural protein)
chain: MQPASAKWYDRRDYVFIEFCVEDSKDVNVNFEKSKLTFSCLGGSDNFKHLNEIDLFHCIDPNDSKHKRTDRSILCCLRKGESGQSWPRLTKERAKLNWLSVDFNNWKDWEDDSDEDMSNFDRFSEMMNNMGGDEDVDLPEVDGADDDSQDSDDEKMPDLE
Kd: 67 µM

Reference: paper PMC11733250
